Laboratory results reported in publication PMC6092121, “Structure of mouse protocadherin 15 of the stereocilia tip link in complex with LHFPL5” (eLife, 2018).

B1: PCDH15 EC11-ELAUC (domain or fragment, mouse (Mus musculus), UniProt Q99PJ1 27-30, looked up)
chain: QYDDHPPVFQKKFYIGGVSEDARMFASVLRVKATDRDTGNYSAMAYRLIIPPIKEGKEGFVVETYTGLIKTAMLFHNMRRSYFKFQVIATDDYGKGLSGKADVLVSVVNQLDMQVIVSNVPPTLVEKKIEDLTEILDRYVQEQIPGAKVVVESIGARRHGDAYSLEDYSKCDLTVYAIDPQTNRAIDRNELFKFLDGKLLDINKDFQPYYGEGGRILEIRTPEAVTSIKKRGESLGYTEG
modifications: treated with PNGase
notes: signal peptide in the construct; also called protocadherin 15; source: HEK293S GnTI- cells, BacMam, secreted, purified (TALON, PNGase treatment, SEC; no thrombin digestion); not shown: 8xHis, C-terminal, kept
B2: PCDH15_(1EC) (EC11 to CR), purified in complex with LHFPL5 for cryo-EM (domain or fragment, mouse (Mus musculus), UniProt Q99PJ1 27-30, looked up)
chain: QYDDHPPVFQKKFYIGGVSEDARMFASVLRVKATDRDTGNYSAMAYRLIIPPIKEGKEGFVVETYTGLIKTAMLFHNMRRSYFKFQVIATDDYGKGLSGKADVLVSVVNQLDMQVIVSNVPPTLVEKKIEDLTEILDRYVQEQIPGAKVVVESIGARRHGDAYSLEDYSKCDLTVYAIDPQTNRAIDRNELFKFLDGKLLDINKDFQPYYGEGGRILEIRTPEAVTSIKKRGESLGYTEGALLALAFIIILCCIPAILVVLVSYRQFKVRQAECTKTARIQSAMPAAKPAAPVPAAPAPPPPPPPPPPGAHLYEELGESAMH
notes: signal peptide in the construct; source: HEK293 tsa201 (suspension), BacMam co-infection with LHFPL5, purified (Strep-Tactin, TALON, thrombin, SEC in digitonin); not shown: mVenus, C-terminal, cleaved; 8xHis, C-terminal, cleaved
B3: PCDH15_(4EC), purified in complex with LHFPL5 for cryo-EM (domain or fragment, mouse (Mus musculus), UniProt Q99PJ1 27-30, looked up)
chain: QYDDSPVFTNSTYTVVVEENLPAGTSFLQIEAKDVDLGANVSYRIRSPEVKHLFALHPFTGELSLLRSLDYEAFPDQEASITFLVEAFDIYGTMPPGIATVTVIVKDMNDYPPVFSKRIYKGMVAPDAVKGTPITTVYAEDADPPGMPASRVRYRVDDVQFPYPASIFDVEEDSGRVVTRVNLNEEPTTIFKLVVVAFDDGEPVMSSSATVRILVLHPGEIPRFTQEEYRPPPVSELAARGTVVGVISAAAINQSIVYSIVAGNEEDKFGINNVTGVIYVNSPLDYETRTSYVLRVQADSLEVVLANLRVPSKSNTAKVYIEIQDENDHPPVFQKKFYIGGVSEDARMFASVLRVKATDRDTGNYSAMAYRLIIPPIKEGKEGFVVETYTGLIKTAMLFHNMRRSYFKFQVIATDDYGKGLSGKADVLVSVVNQLDMQVIVSNVPPTLVEKKIEDLTEILDRYVQEQIPGAKVVVESIGARRHGDAYSLEDYSKCDLTVYAIDPQTNRAIDRNELFKFLDGKLLDINKDFQPYYGEGGRILEIRTPEAVTSIKKRGESLGYTEGALLALAFIIILCCIPAILVVLVSYRQFKVRQAECTKTARIQSAMPAAKPAAPVPAAPAPPPPPPPPPPGAHLYEELGESAMH
modifications: N-linked glycosylation (predicted sites; density at EC10 and EC11)
notes: signal peptide in the construct; the tag may have stayed on; not shown: mVenus, C-terminal, cleaved; 8xHis, C-terminal, cleaved
B4: LHFPL5, purified in complex with PCDH15 for cryo-EM (Strep-mCerulean removed) (natural protein, mouse (Mus musculus), UniProt Q4KL25 2-219, looked up)
chain: VKLLPAQEAAKIYHTNYVRNSRAVGVMWGTLTICFSVLVMALFIQPYWIGDSVSTPQAGYFGLFSYCVGNVLSSELICKGGPLDFSSIPSRAFKTAMFFVALAMFLIIGSIICFSLFFVCNTATVYKICAWMQLAAATGLMIGCLVYPDGWDSSEVRRMCGEQTGKYTLGHCTIRWAFMLAILSIGDALILSFLAFVLGYRQDKLLPDDYKADGNEEV
notes: called full length LHFPL5 in the text; also called TMHS; not shown: Strep, N-terminal, cleaved; mCerulean, N-terminal, cleaved

Experiments:
[1] = target: the molecule itself; assay: AUC; sedimentation velocity, 20°C, 50,000 rpm, absorbance 280 nm, 20 mM Tris pH 8.0, 150 mM NaCl; loading concentrations 0.1-57.8 µM; sw isotherm fitted with a monomer-dimer model; dimer to monomers
[2] = target: the molecule itself; assay: AUC; sedimentation velocity, global direct boundary modelling (Lamm equation, kinetic homo-dimerization model) of samples at 2.3, 7.0 and 11.8 µM; dimer to monomers
[3] = target: the molecule itself; assay: cryo-EM structure; PCDH15_(1EC)-LHFPL5 complex co-expressed and co-purified in digitonin; C2, ~4.5 Å
[4] = target: B4; assay: as above; conditions: both partners purified
[5] = target: the molecule itself; assay: cryo-EM structure; PCDH15_(4EC)-LHFPL5 complex co-expressed and co-purified in digitonin with 1 mM CaCl2; Volta phase plate; straight conformation, C2, ~11.3 Å; domains fitted as rigid bodies
[6] = target: B4; assay: as above; conditions: both partners purified

Binder: B1
Kd [1]: 5.7 µM | stoichiometry N [1]: 2 | Kd [2]: 6.64 µM | koff [2]: 0.00035 s⁻¹

Binder: B2
stoichiometry N [3]: 2 | binding result [4]: binds

Binder: B3
binding result [5]: binds | binding result [6]: binds

Binder: B4
stoichiometry N [3]: 2
